The values that follow come from US20110318339A1 (FABRUS, published 2011).

Changes are numbered by the printed parent chain. Names may count otherwise.

The target of assay [1] is T1, Recombinant Human DLL4 (Cat# 1506-D4/CF, R&D Systems) (human, UniProt Q9NR61 27-529).
T1 construct: Bought protein; also called rHuman DLL4; hDLL4
The experiment in a line: ELISA, DLL4 coated.

Assay [2] concerns the target T1, Recombinant Human DLL4 (Cat# …). The experiment in a line: ELISA, DLL4 coated, estimated from dose-dependent binding. The procedure:
(§1) The plate was blocked by adding 1% BSA in Tris-buffered Saline Tween (TBST) and incubating for 1 hour at room temperature followed by washing 2 times with 150 μl TBST. A Fab antibody was serially diluted in 1% BSA in PBS. A 50 μl aliquot of each serial dilution was added, in triplicate, to each well and the plate was incubated for 1 hour at room temperature followed by washing 2 times with TBST. 50 μl of either goat anti-human kappa HRP conjugated secondary antibody (Cat # A7164-1 mL, Sigma-Aldrich) or goat anti-human lambda HRP conjugated secondary antibody (Cat # L1645-1 ml, Sigma-Aldrich), diluted 1:1000 in 1% BSA in PBS, was added to each well and the plate was incubated for 30 minutes at room temperature followed by washing 3 times with 200 μl TBST. Finally, 50 μl TMB one-component reagent (Cat # TMBW-1000-01, BioFax) was added and allowed to develop for 2 minutes at room temperature. The reaction was immediately halted by the addition of 50 μl 0.5M H₂SO₄ and the absorbance at 450 nm was measured using an ELISA plate reader.

Assay [3] deals with T2, recombinant human DLL4 (Cat# 1506-D4/CF, R&D Systems) (human, UniProt Q9NR61 27-529).
T2 construct: Bought protein; also called hDLL4; rHuman DLL4
The experiment in a line: ELISA, DLL4 coated, Fab 0.63 nM. The procedure:
as §1
For orientation: An ELISA detects its analyte on a solid surface through an enzyme-linked reagent.

Assay [4] deals with T2, recombinant human DLL4 (Cat# …). Briefly: ELISA, DLL4 coated, Fab 10 nM. The procedure:
as §1

For assay [5] the target is unchanged. Briefly: ELISA, DLL4 coated, Fab 20 nM. Here is the method:
as §1

Assay [6] shares this target. Briefly: ELISA, DLL4 coated, Fab 0.16 nM. The procedure:
as §1

For assay [7] the target is unchanged. Briefly: ELISA, DLL4 coated, Fab 1.3 nM. Here is the method: as §1
The target is the same in assay [8]. The experiment in a line: ELISA, DLL4 coated, Fab 2.5 nM. Here is the method: as §1
Assay [9] shares this target. The experiment in a line: ELISA, DLL4 coated, Fab 0.31 nM. The procedure: as §1
For assay [10] the target is unchanged. The experiment in a line: ELISA, DLL4 coated, Fab 5 nM. Here is the method:
as §1

B1: Fab H:APFF LTH & L:NDH LG (Fab, V domains shown)
VH: QVQLVQSGAEVKKPGASVKVSCKASGYTFTSYYMHWVRQAPGQGLEWMGIILPTGHSTSYAQKFQGRVTMTRDTSTSTVYMELSSLRSEDTAVYYCAREEYAPFSAEYFQFWGQGTLVTVSS
VL: EIVLTQSPATLSLSPGERATLSCRASQNVDHYLAWYQQKPGQAPRLLIYDALNRGTGIPARFSGSGSGTDFTLTISSLEPEDFAVYYCQQRSNWPPWTFGQGTKVEIKR
notes: Fab, kappa light chain
On to B1, for which the “fold increased binding affinity against the antibody mutants with heavy chain H:APFF ALTH” value in assay [1] was around 10 fold.

B2: Fab H:APFF TV & L6_IGKJ1*01 (Fab, V domains shown)
VH: B1 VH with I51T, L52V, T54S, H56G
VL: not shown
notes: Fab, kappa light chain; also called H:APFF TV & L:wt; APFF I51T/N52V
On to B2, for which the equilibrium dissociation constant (Kd) in [2] was 10 to 100 nM.

B3: Fab VH1-46_IGHD6-6*01_IGHJ1*01 S102A/S103P/S104F/H111F I51E/N52L/S54T/G56H & L6_IGKJ1*01 (Fab, V domains shown)
VH: B1 VH with I51E
VL: not shown
notes: Fab made in E. coli: VH on CH1 with His6 and Flag tags (Plasmid A), VL on kappa CL (Plasmid C); also called H: APFF ELTH & L: wt
In the case of B3, the “ELISA absorbance at 450 nm” value in [3] came to 1.01 A450; in assay [4], 2.17 A450; in [5], 2.29 A450; in assay [6], 2.17 A450; in assay [7] it was 0.402 A450; in assay [8], 1.98 A450. Moreover, the “ELISA absorbance at 450 nm” value in [9] was 2.29 A450; in assay [10], 2.33 A450.

B4: Fab H:APFF LTH & L:NDH (Fab, V domains shown)
VH: B1 VH
VL: B1 VL with L52S, G55A
notes: Fab, kappa light chain
Consider B4, for which the “fold increased binding affinity against the antibody mutants with heavy chain H:APFF ALTH” value in assay [1] is around 10 fold.

B5: Fab H:APFF LTH & L6_IGKJ1*01 (Fab, V domains shown)
VH: B1 VH
VL: not shown
notes: Fab, kappa light chain; also called H:APFF LTH & L:wt
As for B5, in [2], the Kd was 1 to 10 nM.

B6: Fab H:APFF NLTH & L6_IGKJ1*01 (Fab, V domains shown)
VH: B1 VH with I51N
VL: not shown
notes: Fab, kappa light chain; also called H:APFF NLTH & L:wt
Take B6: in assay [2], the Kd was 1 to 10 nM.

B7: Fab H:APFF G56A & L:NDH (Fab, V domains shown)
VH: B1 VH with L52N, T54S, H56A
VL: B1 VL with L52S, G55A
notes: Fab, kappa light chain
In the case of B7, the “fold greater affinity against H:APFF & L:wt” value in [1] was found to be 8 fold.

B8: Fab H:APFF ELTH & L6_IGKJ1*01 (Fab, V domains shown)
VH: B1 VH with I51E
VL: not shown
notes: Fab, kappa light chain; also called H:APPF ELTH; H:APFF ELTH & L:wt
B8: the Kd in assay [2] was 1 to 10 nM.

B9: Fab VH1-46_IGHD6-6*01_IGHJ1*01 S102A/S103P/S104F/H111F I51T/N52L/P53A/S54T/G56H & L6_IGKJ1*01 (Fab, V domains shown)
VH: B1 VH with I51T, P53A
VL: not shown
notes: Fab made in E. coli: VH on CH1 with His6 and Flag tags (Plasmid A), VL on kappa CL (Plasmid C); also called H: APFF TLATH & L: wt
Consider B9, for which the “ELISA absorbance at 450 nm” value was 0.227 A450 in [3]; 0.875 A450 in assay [4]; 1.11 A450 in assay [5]; 0.875 A450 in assay [6]; 0.078 A450 in [7]; 0.592 A450 in assay [8]. Besides, the “ELISA absorbance at 450 nm” value stood at 1.11 A450 in assay [9] and 1.27 A450 in assay [10].

Broadly, the Kd is the constant that tells how readily two partners part at equilibrium.
